{"source": "paper PMC3207847", "about": "“Characterization of a Novel Type of HIV-1 Particle Assembly Inhibitor Using a Quantitative Luciferase-Vpr Packaging-Based Assay” (PLoS ONE, 2011)", "molecular_target": "HIV-1 Gag precursor Pr55Gag, full-length wild type (HIV-1) (UniProt P03348)", "assay": "co-sedimentation"}
{"substance": "luciferase-Vpr fusion protein (LucVpr) (from UniProt P05928 1-96) (natural protein)", "values": [{"measurement": "copies of Gag per LucVpr molecule in VLP (copies of Gag per LucVpr molecule)", "result": 4.92}]}
{"substance": "oligohistidine-tagged HIV-1 Vpr protein (from UniProt P05928 1-96) (natural protein)", "values": [{"measurement": "copies of Gag per Vpr molecule in VLP (copies of Gag per Vpr molecule)", "result": 5.6}]}
